Data published in US20060093617A1.
Read-outs that look alike come from different tables or passages of the source.

Legend:
[1] = molecular target: HLA-Cw0702 (human)
[2] = molecular target: HLA-B0702 (human)
[3] = molecular target: HLA-Cw0602 (human)
[4] = molecular target: HLA-DRB1*0101 (human); assay: competition vs 125I-labelled probe peptide, purified HLA-DR
[5] = molecular target: HLA-A*0201 (human); assay: competition with radiolabeled probe peptide for purified soluble HLA-A*0201
[6] = molecular target: HLA-DRB1*0301 (human); assay: competition vs 125I-labelled probe peptide, purified HLA-DR
[7] = molecular target: HLA-A0301 (human)
[8] = molecular target: HLA-A*0301 (human); assay: competition with 125I-labelled probe peptide on purified soluble HLA
[9] = molecular target: HLA-A0201 (human); assay: competition vs 125I probe peptide, purified HLA-A*0201
[10] = molecular target: HLA-B0702 (human); assay: competition vs 125I probe peptide, purified HLA
[11] = molecular target: HLA-A0201 (human); assay: competition with 125I-labelled probe peptide, purified HLA
[12] = molecular target: HLA-B*0702 (human); assay: competition with 125I-labeled probe peptide, purified HLA
[13] = molecular target: HLA-A*0201 (human); assay: competition binding, purified soluble HLA, 125I-labelled probe peptide
[14] = molecular target: HLA-B0702 (human); assay: competition with 125I-labelled probe peptide on purified soluble HLA; conditions: remark: other sources report otherwise
[15] = molecular target: HLA-A2402 (human)
[16] = remark: other sources report otherwise

B1: … (peptide)
peptide: YRRCRASGVL
modifications: not checked
Ki [1]: 83 nM

B2: … (peptide)
peptide: TPAETSVRL
modifications: not checked
Ki [2]: < 1000 nM

B3: … (peptide)
peptide: GRRGIYRFV
modifications: not checked
Ki [3]: 576 nM

B4: … (SEQ ID NO 2166) (peptide)
peptide: LAGYGAGVAGALVAF
modifications: not checked
IC50 [4, 16]: 137 nM

B5: … (peptide)
peptide: QIVGGVYLL
modifications: not checked
IC50 [5]: 228 nM

B6: … (SEQ ID NO 2149) (peptide)
peptide: GPRLGVRATRKTSER
modifications: not checked
IC50 [6]: 18900 nM

B7: … (SEQ ID NO 2110) (peptide)
peptide: ASCLRKLGVPPLRVW
modifications: not checked
IC50 [4]: 4.9 nM

B8: … (peptide)
peptide: RVCEKMALY
modifications: not checked
Ki [7]: < 1000 nM | IC50 [8]: 53 nM

B9: … (peptide)
peptide: DQRPYCWHY
modifications: not checked
Ki [1]: 710 nM

B10: … (peptide)
peptide: NAVAYYRGL
modifications: not checked
Ki [3, 16]: 10800 nM

B11: … (peptide)
peptide: SPGQRVEFL
modifications: not checked
Ki [2, 16]: < 1000 nM

B12: … (SEQ ID NO 2155) (peptide)
peptide: GVNYATGNLPGCSFS
modifications: not checked
IC50 [4]: 4560 nM

B13: … (peptide)
peptide: YIPLVGAPL
modifications: not checked
Ki [9, 16]: 77 nM | IC50 [5, 16]: 337 nM

B14: … (peptide)
peptide: TLWARMILM
modifications: not checked
Ki [9]: 8 nM

B15: … (peptide)
peptide: RKPARLIVF
modifications: not checked
Ki [3]: 8280 nM

B16: … (peptide)
peptide: GMFDSSVLC
modifications: not checked
Ki [9]: 71 nM | IC50 [5]: 114 nM

B17: … (peptide)
peptide: VAYYRGLDV
modifications: not checked
Ki [3]: 231 nM

B18: … (SEQ ID NO 2199) (peptide)
peptide: RAAVCTRGVAKAVDF
modifications: not checked
IC50 [4]: 619 nM

B19: … (peptide)
peptide: GRKPARLIV
modifications: not checked
Ki [3]: 2040 nM

B20: … (peptide)
peptide: ALAHGVRVL
modifications: not checked
Ki [10, 16]: 7950 nM | Ki [11, 16]: 627 nM

B21: … (peptide)
peptide: MALYDVVST
modifications: not checked
Ki [9]: 1140 nM

B22: … (peptide)
peptide: LPRRGPRLG
modifications: not checked
IC50 [12]: 124 nM

B23: … (peptide)
peptide: YAAQGYKVLV
modifications: not checked
Ki [3]: 9210 nM

B24: … (SEQ ID NO 2245) (peptide)
peptide: WESVFTGLTHIDAHF
modifications: not checked
IC50 [4, 16]: 122 nM

B25: … (peptide)
peptide: VVSTLPQAV
modifications: not checked
Ki [9]: 884 nM

B26: … (SEQ ID NO 2192) (peptide)
peptide: PQTFQVAHLHAPTGS
modifications: not checked
IC50 [4]: 22 nM

B27: … (peptide)
peptide: IMACMSADL
modifications: not checked
Ki [9, 16]: 66 nM | IC50 [13, 16]: 66 nM

B28: … (peptide)
peptide: RLYIGGPLT
modifications: not checked
Ki [9]: 536 nM

B29: … (peptide)
peptide: APTGSGKST
modifications: not checked
Ki [10]: 370 nM | IC50 [12]: 370 nM

B30: … (SEQ ID NO 2125) (peptide)
peptide: DVVVVATDALMTGYT
modifications: not checked
IC50 [4, 16]: 456 nM

B31: … (peptide)
peptide: APTLWARMIL
modifications: not checked
Ki [10, 16]: 1 nM | Ki [14]: 1 nM

B32: … (peptide)
peptide: RVFTEAMTR
modifications: not checked
Ki [7]: < 1000 nM | IC50 [8]: 45 nM

B33: … (peptide)
peptide: TYSTYGKFL
modifications: not checked
Ki [3, 16]: 4860 nM | Ki [1]: 239 nM

B34: … (peptide)
peptide: YLFNWAVRT
modifications: not checked
Ki [9]: 29 nM | IC50 [13]: 29 nM

B35: … (peptide)
peptide: RMILMTHFF
modifications: not checked
Ki [15, 16]: 6 nM

B36: … (peptide)
peptide: NIIMYAPTL
modifications: not checked
Ki [9]: 70 nM | IC50 [13]: 70 nM

B37: … (peptide)
peptide: CLVDYPYRL
modifications: not checked
Ki [11]: 437 nM | IC50 [5]: 437 nM

B38: … (peptide)
peptide: YRRCRASGV
modifications: not checked
Ki [3]: 634 nM

B39: … (peptide)
peptide: KVLVLNPSV
modifications: not checked
Ki [9]: 50 nM | IC50 [5]: 50 nM

B40: … (SEQ ID NO 2105) (peptide)
peptide: ADLMGYIPLVGAPLG
modifications: not checked
IC50 [4, 16]: 8330 nM

B41: … (peptide)
peptide: YYRGLDVSVI
modifications: not checked
Ki [15]: 2 nM | Ki [1]: 87 nM

B42: … (peptide)
peptide: FLLALLSCL
modifications: not checked
IC50 [5, 16]: 136 nM

B43: … (peptide)
peptide: ATLGFGAYM
modifications: not checked
Ki [10]: 13000 nM

B44: … (SEQ ID NO 2153) (peptide)
peptide: GSSYGFQYSPGQRVE
modifications: not checked
IC50 [4, 16]: 11 nM

B45: … (peptide)
peptide: DLMGYIPLV
modifications: not checked
Ki [11, 16]: 36 nM | IC50 [5, 16]: 83 nM

B46: … (peptide)
peptide: NLPGCSFSI
modifications: not checked
Ki [15, 16]: 8 nM | Ki [9, 16]: 70 nM | IC50 [5, 16]: 83 nM

B47: … (SEQ ID NO 2226) (peptide)
peptide: TTIMAKNEVFCVQPE
modifications: not checked
IC50 [4, 16]: 3730 nM

B48: … (peptide)
peptide: YQATVCARA
modifications: not checked
Ki [9]: 20 nM | IC50 [13]: 20 nM

B49: … (peptide)
peptide: VTLTHPITK
modifications: not checked
Ki [7, 16]: < 1000 nM

B50: … (peptide)
peptide: APTLWARMI
modifications: not checked
Ki [2, 16]: < 1000 nM

B51: … (peptide)
peptide: LPRRGPRLGV
modifications: not checked
Ki [10, 16]: 3 nM | Ki [14]: 3 nM

B52: … (peptide)
peptide: APLGGAARAL
modifications: not checked
Ki [10, 16]: 1 nM | IC50 [12, 16]: 0.8 nM | Ki [14]: 1 nM

B53: … (SEQ ID NO 2213) (peptide)
peptide: SKGWRLLAPITAYAQ
modifications: not checked
IC50 [4]: 0.4 nM

B54: … (SEQ ID NO 2193) (peptide)
peptide: PTHYVPESDAAARVT
modifications: not checked
IC50 [6]: 4950 nM

B55: … (peptide)
peptide: IIMYAPTLW
modifications: not checked
Ki [15]: 0.8 nM

B56: … (SEQ ID NO 2111) (peptide)
peptide: ASQLSAPSLKATCTT
modifications: not checked
IC50 [4]: 329 nM

B57: … (peptide)
peptide: APPPSWDQM
modifications: not checked
Ki [2, 16]: < 1000 nM

B58: … (peptide)
peptide: VILDSFDPL
modifications: not checked
Ki [15]: > 20000 nM

B59: … (peptide)
peptide: GLTHIDAHF
modifications: not checked
Ki [15]: 3 nM

B60: … (SEQ ID NO 2157) (peptide)
peptide: GYKVLVLNPSVAATL
modifications: not checked
IC50 [4]: 8.4 nM

B61: … (peptide)
peptide: APLGGAARA
modifications: not checked
Ki [10]: 115 nM | IC50 [12]: 115 nM

B62: … (peptide)
peptide: AAYAAQGYK
modifications: not checked
Ki [7]: < 1000 nM

B63: … (SEQ ID NO 2142) (peptide)
peptide: GHRMAWDMMMNWSPT
modifications: not checked
IC50 [4]: 183 nM | IC50 [6]: 919 nM

B64: … (peptide)
peptide: DLCGSVFLV
modifications: not checked
Ki [11, 16]: 789 nM

B65: … (SEQ ID NO 2137) (peptide)
peptide: GARLVVLATATPPGS
modifications: not checked
IC50 [4, 16]: 173 nM
